Experiment [1] addresses T1, human serum albumin (human, UniProt P02768 25-609).
T1 construct: mature; Bought protein; biotinylated in the Octet and HTRF assays; also called HSA; HuSA
Briefly: Biacore sensorgram on serum albumin (HSA). (SPR reads the build-up and loss of mass on a sensor chip optically.)

Experiment [2] has as its target T1, human serum albumin. Briefly: BLI (Octet), biotinylated albumin on SA sensor, pH 6.0. The procedure: (§1) Biotinylated antigen was captured onto SA sensors at 1 μg/ml for 600 seconds in a buffer comprising PBS-T (0.01% Tween 20)+1% casein at either pH 6.0 or 7.4. Association was carried out for 300 seconds and dissociation for 600 seconds, and regeneration was performed using 10 mM glycine pH 1.5 (GE Healthcare) for 3×5 seconds. All steps were carried out at 1000 rpm and 25° C. Purified AFFIMER® polypeptide in two-fold serial dilutions was analyzed at a starting concentration of approximately 10× K_{D value}. Kinetics analyses were carried out using the Octet data analysis software, subtracting the reference sensor (loaded with antigen), aligning the Y-axis to baseline, and using inter-step correction to align association to dissociation. Savitzky-Golay filtering was applied and the data processed. Analysis of the data was carried out with a 1:1 model, global fit, Rₘₐₓ unlinked by sensor.
On the technique in general: In BLI a coated tip is dipped into the sample, and binding shifts an interference pattern.

Experiment [3] addresses T2, mouse serum albumin (mouse, UniProt P07724 25-608).
T2 construct: also called MSA
Described as above. On the procedure: as §1

In experiment [4] the target is T3, cynomolgus serum albumin (cynomolgus).
T3 construct: also called CSA; cyno serum albumin
T3 sequence (A2V9Z4 25-608): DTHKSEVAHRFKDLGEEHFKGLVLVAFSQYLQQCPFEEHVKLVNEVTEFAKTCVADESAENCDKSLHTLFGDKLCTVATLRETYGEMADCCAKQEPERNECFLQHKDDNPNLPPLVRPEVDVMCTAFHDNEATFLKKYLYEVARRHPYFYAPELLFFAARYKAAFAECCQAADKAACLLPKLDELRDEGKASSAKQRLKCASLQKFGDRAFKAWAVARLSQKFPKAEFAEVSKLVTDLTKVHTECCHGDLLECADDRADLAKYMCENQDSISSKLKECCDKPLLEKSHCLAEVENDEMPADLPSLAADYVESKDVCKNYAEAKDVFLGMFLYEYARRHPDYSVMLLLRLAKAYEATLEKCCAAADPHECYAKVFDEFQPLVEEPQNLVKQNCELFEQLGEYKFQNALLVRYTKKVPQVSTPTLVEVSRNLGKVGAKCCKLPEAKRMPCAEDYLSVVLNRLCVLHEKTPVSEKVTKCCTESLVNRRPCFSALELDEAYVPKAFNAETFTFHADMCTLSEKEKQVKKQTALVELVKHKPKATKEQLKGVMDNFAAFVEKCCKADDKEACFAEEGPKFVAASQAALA
Described as above. On the procedure: as §1

Another experiment has as its target rabbit serum albumin (rabbit, UniProt P49065 25-608). The experiment can be described thus: binding ELISA, coated albumin, pH 7.4. On the procedure:
(§2) Briefly, ELISA was performed as follow:
(§3) Human (Sigma-Aldrich); Cynomolgus and Mouse (Abcam); Equine (Abcam); Canine (Abcam); Mouse (Sigma-Aldrich); Rabbit (Sigma-Aldrich); Porcine (Sigma-Aldrich);, and Rat (Sigma-Aldrich) serum albumin were coated overnight on 96 well plates (Corning Costar) at 1 μg/ml in PBS at the appropriate pH (pH 6.0 or 7.4). Plates were saturated using 5% Casein (Sigma-Aldrich) buffer in PBS. […] Plates were then washed and AFFIMER® proteins were detected using a biotinylated polyclonal antibody anti-Cystatin (R&D System) for 90 minutes. After washing, streptavidin-HRP (Thermo Fisher Scientific) was added and incubated for 30 minutes.
In general terms: An ELISA detects its analyte on a solid surface through an enzyme-linked reagent.

The target in experiment [5] is T4, canine serum albumin (canine, UniProt P49822 25-608). The experiment can be described thus: binding ELISA, coated albumin, pH 7.4. The procedure:
as §2, §3

Experiment [6] deals with T1, human serum albumin. The experiment can be described thus: binding ELISA, coated albumin, pH 7.4. On the procedure:
as §2, §3

In experiment [7] the target is T5, porcine serum albumin (porcine, UniProt P08835 25-607). The experiment can be described thus: binding ELISA, coated albumin, pH 7.4. The procedure:
as §2, §3

Experiment [8] deals with T2, mouse serum albumin. Briefly: binding ELISA, coated albumin, pH 7.4. On the procedure:
as §2, §3

For experiment [9], the target named is T3, cynomolgus serum albumin. Briefly: binding ELISA, coated albumin, pH 7.4. The procedure:
as §2, §3

For experiment [10], the target named is T6, equine serum albumin (equine, UniProt P35747 25-607). Briefly: binding ELISA, coated albumin, pH 7.4. The procedure:
as §2, §3

Experiment [11] concerns the target T7, rat serum albumin (rat, UniProt P02770 25-608). Briefly: binding ELISA, coated albumin, pH 7.4. The procedure:
as §2, §3

Experiment [12] deals with T1, human serum albumin. The experiment can be described thus: BLI (Octet), biotinylated albumin on SA sensor, pH 7.4. The procedure: as §1
The target in experiment [13] is T2, mouse serum albumin. Described as above. The procedure:
as §1

Experiment [14] has as its target T3, cynomolgus serum albumin. The experiment is described as above. On the procedure:
as §1

Experiment [15] addresses T3, cynomolgus serum albumin. The experiment can be described thus: binding ELISA on coated albumin, pH 6.0, panel 'CSA Binding at pH 6.0'. The procedure: as §2, §3
The target of experiment [16] is T7, rat serum albumin. Briefly: binding ELISA on coated albumin, pH 6.0, panel 'Rat SA Binding at pH 6.0'. On the procedure: as §2, §3
The target in experiment [17] is T5, porcine serum albumin. Briefly: binding ELISA on coated albumin, pH 6.0, panel 'Porcine SA Binding at pH 6.0'. The procedure:
as §2, §3

Experiment [18] addresses T4, canine serum albumin. Briefly: binding ELISA on coated albumin, pH 6.0, panel 'Canine SA Binding at pH 6.0'. The procedure:
as §2, §3

Experiment [19] has as its target T1, human serum albumin. Briefly: Octet biolayer interferometry, biotinylated albumin on SA sensors, pH 6.0. On the procedure:
as §1

The target in experiment [20] is T2, mouse serum albumin. Described as above. On the procedure:
as §1

Experiment [21] concerns the target T3, cynomolgus serum albumin. The description is as above. The procedure:
as §1

Experiment [22] concerns the target T2, mouse serum albumin. Briefly: binding ELISA on coated albumin, pH 6.0, panel 'MSA Binding at pH 6.0'. On the procedure:
as §2, §3

In experiment [23] the target is T1, human serum albumin. The experiment can be described thus: Octet biolayer interferometry, biotinylated albumin on SA sensors, pH 7.4. The procedure: as §1
Experiment [24] has as its target T2, mouse serum albumin. The experiment is described as above. On the procedure: as §1
The target in experiment [25] is T3, cynomolgus serum albumin. Described as above. On the procedure: as §1
The target in experiment [26] is T1, human serum albumin. The experiment can be described thus: binding ELISA on coated albumin, pH 6.0, panel 'HSA Binding at pH 6.0'. On the procedure:
as §2, §3

For experiment [27], the target named is T1, human serum albumin. Briefly: Biacore, immobilised HSA, running buffer pH 6.0. From the text: (§4) […] Fc2-1, Fc3-1 and Fc4-1 kinetic data was blank subtracted and fit to a 1:1 Langmuir binding model (BIAcore Evalution software; GE) to calculate KD values.
In experiment [28] the target is T2, mouse serum albumin. Briefly: Biacore, immobilised MSA, pH 6.0.
Excerpt: as §4

The target of experiment [29] is T1, human serum albumin. The experiment can be described thus: Biacore, immobilised HSA, running buffer pH 7.4. On the procedure: (§5) Affinities for mouse, human, and cynomolgus serum were also measured at pH 7.4 for four (4) AFFIMER® binders using surface plasmon resonance (SPR) (FIG. 5, Table 5). […] A concentration titration of AFFIMER® monomers was run as analyte at a flow rate of 30 μl/min or 60 μl/min. Fc2-1, Fc3-1 and Fc4-1 kinetic data was blank subtracted and fit to a 1:1 Langmuir binding model (BIAcore Evalution software; GE) to calculate KD values.

The target of experiment [30] is T6, equine serum albumin. Briefly: binding ELISA on coated albumin, pH 7.4, panel 'Equine SA Binding at pH 7.4' (Table 6 gives NA for this pair). On the procedure:
as §2, §3

Experiment [31] has as its target T1, human serum albumin. Briefly: SPR (Biacore T200), albumin amine-coupled to CM5, Affimer analyte, pH 7.4. On the procedure:
as §5

The target in experiment [32] is T2, mouse serum albumin. The description is as above. On the procedure: as §5
Experiment [33] deals with T3, cynomolgus serum albumin. The experiment is described as above. On the procedure: as §5

T5 sequence (P08835 25-607 limits assumed): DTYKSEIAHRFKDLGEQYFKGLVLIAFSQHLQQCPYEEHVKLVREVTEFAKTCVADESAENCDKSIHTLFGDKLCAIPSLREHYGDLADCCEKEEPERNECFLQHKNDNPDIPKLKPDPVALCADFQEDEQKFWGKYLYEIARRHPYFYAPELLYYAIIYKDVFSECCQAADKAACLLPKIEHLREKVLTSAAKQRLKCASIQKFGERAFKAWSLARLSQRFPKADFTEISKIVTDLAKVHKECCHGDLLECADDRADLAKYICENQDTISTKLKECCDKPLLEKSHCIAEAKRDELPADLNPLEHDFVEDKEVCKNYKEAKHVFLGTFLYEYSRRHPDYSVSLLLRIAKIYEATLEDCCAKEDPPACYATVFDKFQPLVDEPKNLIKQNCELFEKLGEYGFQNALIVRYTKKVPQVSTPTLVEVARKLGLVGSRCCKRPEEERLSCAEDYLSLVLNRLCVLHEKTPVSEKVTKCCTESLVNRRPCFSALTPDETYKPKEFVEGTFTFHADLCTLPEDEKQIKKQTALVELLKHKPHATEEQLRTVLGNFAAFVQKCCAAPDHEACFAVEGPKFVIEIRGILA
T4 sequence (P49822 25-608 limits assumed): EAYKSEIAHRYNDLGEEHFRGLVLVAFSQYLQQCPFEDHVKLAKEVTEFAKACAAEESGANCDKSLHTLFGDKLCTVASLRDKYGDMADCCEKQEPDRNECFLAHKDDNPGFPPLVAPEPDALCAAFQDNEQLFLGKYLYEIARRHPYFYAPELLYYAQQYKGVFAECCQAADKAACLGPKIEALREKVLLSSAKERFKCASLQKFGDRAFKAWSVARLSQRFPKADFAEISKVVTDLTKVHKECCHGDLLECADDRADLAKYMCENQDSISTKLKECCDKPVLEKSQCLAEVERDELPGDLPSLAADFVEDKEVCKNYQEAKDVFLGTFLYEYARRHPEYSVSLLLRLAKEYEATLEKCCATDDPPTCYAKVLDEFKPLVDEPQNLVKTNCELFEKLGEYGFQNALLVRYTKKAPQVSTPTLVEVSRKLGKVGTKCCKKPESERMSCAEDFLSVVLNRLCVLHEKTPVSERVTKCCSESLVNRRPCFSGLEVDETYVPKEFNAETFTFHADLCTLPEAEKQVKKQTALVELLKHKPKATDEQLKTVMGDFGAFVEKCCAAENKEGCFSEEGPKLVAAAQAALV
T2 sequence (P07724 25-608 limits assumed): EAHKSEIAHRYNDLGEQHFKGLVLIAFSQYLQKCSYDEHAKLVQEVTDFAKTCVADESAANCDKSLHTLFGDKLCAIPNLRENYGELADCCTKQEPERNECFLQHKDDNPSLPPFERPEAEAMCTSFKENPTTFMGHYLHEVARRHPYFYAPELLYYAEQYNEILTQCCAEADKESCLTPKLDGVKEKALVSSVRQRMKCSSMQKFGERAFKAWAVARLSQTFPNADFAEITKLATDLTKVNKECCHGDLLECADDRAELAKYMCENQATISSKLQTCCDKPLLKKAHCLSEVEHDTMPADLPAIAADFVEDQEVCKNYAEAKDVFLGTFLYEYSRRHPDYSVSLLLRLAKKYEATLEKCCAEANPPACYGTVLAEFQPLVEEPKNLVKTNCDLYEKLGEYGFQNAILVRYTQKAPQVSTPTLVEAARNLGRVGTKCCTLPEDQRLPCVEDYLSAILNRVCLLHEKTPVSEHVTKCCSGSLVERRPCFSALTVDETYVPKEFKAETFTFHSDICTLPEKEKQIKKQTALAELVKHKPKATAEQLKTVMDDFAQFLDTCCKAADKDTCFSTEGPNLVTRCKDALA
T7 sequence (P02770 25-608 limits assumed): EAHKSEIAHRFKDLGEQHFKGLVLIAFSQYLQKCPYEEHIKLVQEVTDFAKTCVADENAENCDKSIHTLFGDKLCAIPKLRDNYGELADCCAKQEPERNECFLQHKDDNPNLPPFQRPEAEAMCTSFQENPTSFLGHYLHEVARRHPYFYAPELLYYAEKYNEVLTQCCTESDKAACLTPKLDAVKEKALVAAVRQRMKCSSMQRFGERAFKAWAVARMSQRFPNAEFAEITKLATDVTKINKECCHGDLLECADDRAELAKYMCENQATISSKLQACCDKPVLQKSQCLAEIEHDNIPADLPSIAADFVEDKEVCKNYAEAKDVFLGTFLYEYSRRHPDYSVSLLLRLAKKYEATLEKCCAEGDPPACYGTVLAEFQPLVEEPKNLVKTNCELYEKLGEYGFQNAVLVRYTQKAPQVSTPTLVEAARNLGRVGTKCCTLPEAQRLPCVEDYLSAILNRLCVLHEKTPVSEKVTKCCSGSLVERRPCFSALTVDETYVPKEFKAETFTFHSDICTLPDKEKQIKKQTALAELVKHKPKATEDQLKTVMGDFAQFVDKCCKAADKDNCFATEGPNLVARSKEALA
T6 sequence (P35747 25-607 limits assumed): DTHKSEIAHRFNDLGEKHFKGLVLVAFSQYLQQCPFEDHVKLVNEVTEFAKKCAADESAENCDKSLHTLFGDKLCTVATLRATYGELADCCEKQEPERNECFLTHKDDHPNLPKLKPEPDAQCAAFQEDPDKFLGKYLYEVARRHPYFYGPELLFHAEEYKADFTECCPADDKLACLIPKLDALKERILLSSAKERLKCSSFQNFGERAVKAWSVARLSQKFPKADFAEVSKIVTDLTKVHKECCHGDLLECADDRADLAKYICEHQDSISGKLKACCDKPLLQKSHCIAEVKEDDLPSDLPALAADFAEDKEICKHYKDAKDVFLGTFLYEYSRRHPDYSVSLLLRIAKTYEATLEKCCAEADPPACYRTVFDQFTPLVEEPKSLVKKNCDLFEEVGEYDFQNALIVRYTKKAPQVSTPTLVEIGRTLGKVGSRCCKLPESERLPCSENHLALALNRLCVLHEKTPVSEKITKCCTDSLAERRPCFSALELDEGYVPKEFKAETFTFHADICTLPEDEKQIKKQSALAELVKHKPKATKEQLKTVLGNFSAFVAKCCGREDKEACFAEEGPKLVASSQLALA
Sequence of rabbit serum albumin (P49065 25-608 limits assumed): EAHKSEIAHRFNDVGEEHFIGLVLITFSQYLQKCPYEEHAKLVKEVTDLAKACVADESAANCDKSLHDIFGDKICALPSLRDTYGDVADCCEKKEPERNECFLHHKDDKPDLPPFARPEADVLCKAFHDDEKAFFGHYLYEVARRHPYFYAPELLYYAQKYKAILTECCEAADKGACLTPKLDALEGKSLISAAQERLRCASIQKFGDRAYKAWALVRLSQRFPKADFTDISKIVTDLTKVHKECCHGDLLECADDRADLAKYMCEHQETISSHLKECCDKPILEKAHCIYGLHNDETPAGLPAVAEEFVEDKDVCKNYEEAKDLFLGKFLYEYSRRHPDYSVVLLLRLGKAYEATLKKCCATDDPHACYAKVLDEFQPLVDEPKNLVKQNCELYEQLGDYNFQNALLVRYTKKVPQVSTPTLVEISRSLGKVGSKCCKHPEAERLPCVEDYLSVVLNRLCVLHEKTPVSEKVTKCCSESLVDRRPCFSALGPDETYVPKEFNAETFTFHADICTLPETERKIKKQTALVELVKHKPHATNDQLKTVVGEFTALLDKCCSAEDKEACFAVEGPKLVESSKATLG

B1: HSA-41 loop 4 deletion (designed binder)
chain: MIPRGLSEAKPATPEIQEIVDKVKPQLEEKTNETYGKLEAVQYKTQVLANFFQRRWPGSTNYYIKVRAGDNKYMHLKVFNGPADRVLTGYQVDKNKDDELTGFHHHHHH
notes: also called loop 4 knockout mutant (deletion)
For B1, in the experiment with human serum albumin [1], the binding result was “no binding”.

B2: HSA-31 (designed binder)
chain: MIPRGLSEAKPATPEIQEIVDKVKPQLEEKTNETYGKLEAVQYKTQVLAVWGPEYQHQSTNYYIKVRAGDNKYMHLKVFNGPNAGWPLVPEADRVLTGYQVDKNKDDELTGFHHHHHH
As a reminder, the Kd is the constant that tells how readily two partners part at equilibrium. What is called EC50 is the concentration needed to bring the measured effect to its halfway point. Low readings indicate a more potent agent, high ones a less potent agent. What is called EC50 (read off the curve) is the concentration giving half of the maximal effect. Read a low EC50 (read off the curve) as a more potent agent. A word on the koff: it is a measure of how fast the partners let go of each other. Read a low koff as slow dissociation. The kon is the second-order rate constant of association. A high value points to faster complex formation. Turning to B2, the Kd with human serum albumin [2] was 21.1 nM; with mouse serum albumin [3], 3.7 nM; with cynomolgus serum albumin [4] it was 18.5 nM; in the experiment with human serum albumin [12], 15.3 nM; with mouse serum albumin [13], 3.3 nM; with cynomolgus serum albumin [14], 83 nM. In addition, the EC50 amounted to 211 nM in the experiment with rabbit serum albumin; 3.17 nM with canine serum albumin [5]; 0.47 nM with human serum albumin [6]; 2.6 nM with porcine serum albumin [7]; 0.03 nM with mouse serum albumin [8]; 0.43 nM with cynomolgus serum albumin [9]. The EC50 with equine serum albumin [10] was determined as 0.25 nM; with rat serum albumin [11], 0.39 nM. Further, the “EC50 (read off the curve)” value with cynomolgus serum albumin [15] was around 0.6 nM; in the experiment with rat serum albumin [16], around 0.04 nM; in the experiment with porcine serum albumin [17], around 9 nM; with canine serum albumin [18] it was around 2 nM; in the experiment with mouse serum albumin [22], around 0.06 nM; in the experiment with human serum albumin [26] it was around 1 nM. Also, the koff was found to be 0.00245 s⁻¹ in the experiment with human serum albumin [19]; 0.00218 s⁻¹ with cynomolgus serum albumin [21]; 0.00317 s⁻¹ with human serum albumin [23]; 0.000575 s⁻¹ with mouse serum albumin [24]; 0.0037 s⁻¹ with cynomolgus serum albumin [25]. Also, the kon with human serum albumin [19] turned out to be 116000 M⁻¹ s⁻¹; in the experiment with mouse serum albumin [20], 166000 M⁻¹ s⁻¹; with cynomolgus serum albumin [21], 118000 M⁻¹ s⁻¹; in the experiment with human serum albumin [23], 208000 M⁻¹ s⁻¹; with mouse serum albumin [24] it was 176000 M⁻¹ s⁻¹; in the experiment with cynomolgus serum albumin [25], 44600 M⁻¹ s⁻¹.

B3: HSA-18 (designed binder)
chain: MIPRGLSEAKPATPEIQEIVDKVKPQLEEKTNETYGKLEAVQYKTQVLADWWQAKWPHSTNYYIKVRAGDNKYMHLKVFNGPYKVHQSSGGADRVLTGYQVDKNKDDELTGFHHHHHH
notes: also called HSA-18 monomer
Regarding B3, the Kd in the experiment with human serum albumin [2] was found to be 17.9 nM; with mouse serum albumin [3], 618 nM; with cynomolgus serum albumin [4], 68.7 nM; with human serum albumin [27], 152 nM; in the experiment with human serum albumin [12], 36.1 nM; with mouse serum albumin [13], 981 nM. Moreover, the Kd came out at 106 nM with cynomolgus serum albumin [14]; 49.4 nM in the experiment with mouse serum albumin [28]; 109 nM with human serum albumin [29]; 146 nM with human serum albumin [31]; 2180 nM with mouse serum albumin [32]; 542 nM with cynomolgus serum albumin [33]. For the same molecule, the EC50 with rabbit serum albumin is 847 nM; with canine serum albumin [5], 96.5 nM; with human serum albumin [6], 1.41 nM; with porcine serum albumin [7], 615 nM; in the experiment with cynomolgus serum albumin [9] it was 7.14 nM; with rat serum albumin [11] it was 89.4 nM. The koff in the experiment with human serum albumin [27] was found to be 0.0122 s⁻¹; in the experiment with mouse serum albumin [28], 0.0298 s⁻¹; with human serum albumin [29], 0.0078 s⁻¹; in the experiment with human serum albumin [31], 0.00789 s⁻¹; in the experiment with mouse serum albumin [32], 0.0742 s⁻¹; with cynomolgus serum albumin [33], 0.0261 s⁻¹. The kon came out at 80000 M⁻¹ s⁻¹ with human serum albumin [27]; 602000 M⁻¹ s⁻¹ in the experiment with mouse serum albumin [28]; 71400 M⁻¹ s⁻¹ in the experiment with human serum albumin [29]; 54100 M⁻¹ s⁻¹ in the experiment with human serum albumin [31]; 34100 M⁻¹ s⁻¹ with mouse serum albumin [32]; 48300 M⁻¹ s⁻¹ with cynomolgus serum albumin [33]. Also, the “EC50 (read off the curve)” value is around 0.1 nM with cynomolgus serum albumin [15], around 3 nM with rat serum albumin [16], around 10 nM with canine serum albumin [18] and around 0.2 nM with human serum albumin [26]. Also, the binding result with equine serum albumin [30] was “binds”.

B4: HSA-41 x9 glycine loops (designed binder)
chain: MIPRGLSEAKPATPEIQEIVDKVKPQLEEKTNETYGKLEAVQYKTQVLANFFQRRWPGSTNYYIKVRAGDNKYMHLKVFNGPGGGGGGGGGADRVLTGYQVDKNKDDELTGFHHHHHH
notes: also called HSA-41 loop 4 replaced with 9 glycine residues; loop 4 knockout mutant
As for B4, the binding result in the experiment with human serum albumin [1] is “no binding”.

These data come from patent publication US20230272011A1 (AVACTA LIFE SCIENCES, published 2023).
